US20140086927A1 (FUJITA HEALTH UNIVERSITY, published 2014)

Tests used:
[1] = molecular target: Fuk85HA39-319 (truncated HA on 293T cells) (Influenza A virus H3N2, …, UniProt P12589 39-319); experiment: flow cytometry on 293T cells expressing truncated HA
[2] = molecular target: Fuk85HA44-309 (truncated HA on 293T cells) (Influenza A virus H3N2, …, UniProt P12589 44-309); experiment: as above

B1: F005-126 antibody (IgG) (antibody, V domains shown)
VH: QVQLVQSGAEVKKPGASVTVSCQVSGYTLTSYGLSWVRQAPGQGLEWVGWINTYDGQTKYVKKFQGRVTMTTHTGTNTAYMEMKSLRSDDTAVYYCARVEGVRGVMGFHYYPMDVWGQGTMVTVSS
VL: QSVLTQPPSVSGAPGQRVTISCTGSSSNIGAGYAVHWYQQLPGTAPKLLISGNSNRPSGVPDRFSGSKSGTSASLAITGLQAEDEADYYCQSYDSSLSGSVFGGGTKLTVLG
notes: also called F5126; F05126
binding result [1]: binds | binding result [2]: no binding
